Experimental data taken from patent publication US20240166767A1 (SCIRHOM, published 2024).
Positions count from the first letter of the chain named.

Target: T1, mouse iRhom2 full length wild type C-terminally tagged with 3 consecutive copies of the T7 epitope (mouse, UniProt Q80WQ6 1-827)
T1 construct: also called miR2-FL-WT-T7; mouse iRhom2 variant
T1 sequence: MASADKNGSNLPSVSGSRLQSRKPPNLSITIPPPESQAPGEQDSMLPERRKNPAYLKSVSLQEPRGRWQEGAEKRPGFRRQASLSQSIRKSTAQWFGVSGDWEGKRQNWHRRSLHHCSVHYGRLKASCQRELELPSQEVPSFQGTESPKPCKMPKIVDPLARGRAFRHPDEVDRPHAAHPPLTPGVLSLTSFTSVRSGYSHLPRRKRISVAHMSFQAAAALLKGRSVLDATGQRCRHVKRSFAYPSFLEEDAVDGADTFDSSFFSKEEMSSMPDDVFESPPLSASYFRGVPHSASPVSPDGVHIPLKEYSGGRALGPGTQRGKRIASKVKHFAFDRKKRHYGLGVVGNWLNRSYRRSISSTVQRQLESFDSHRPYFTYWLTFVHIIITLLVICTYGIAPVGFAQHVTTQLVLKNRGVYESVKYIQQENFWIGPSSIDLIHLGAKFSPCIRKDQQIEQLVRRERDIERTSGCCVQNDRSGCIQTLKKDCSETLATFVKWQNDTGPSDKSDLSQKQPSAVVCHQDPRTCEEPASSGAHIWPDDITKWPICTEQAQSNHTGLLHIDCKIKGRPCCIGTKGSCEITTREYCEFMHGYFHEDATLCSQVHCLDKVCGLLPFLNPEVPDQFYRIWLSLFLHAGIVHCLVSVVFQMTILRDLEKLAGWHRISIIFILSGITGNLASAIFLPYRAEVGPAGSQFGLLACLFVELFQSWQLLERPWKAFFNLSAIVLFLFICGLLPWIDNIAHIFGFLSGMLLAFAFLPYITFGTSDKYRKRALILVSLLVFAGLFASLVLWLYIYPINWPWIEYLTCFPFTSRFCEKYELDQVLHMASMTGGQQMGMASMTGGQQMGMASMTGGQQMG
Assay: FACS on MEF-DKO-miR2-FL-WT-T7 cells
Protocol: In brief, immortalized MEF-DKO-EV control cells, MEF-DKO-hiR2-FL-WT-T7 cells and MEF-DKO-miR2-FL-WT-T7 cells were harvested with 10 mM EDTA in PBS, washed and resuspended in FACS buffer (PBS, 3% FBS, 0.05% sodium azide), and seeded in Nunc U-bottom 96-well plates (Thermo Fisher Scientific, USA) at approximately 3×10⁵ cells per well. To pellet cells and remove supernatants, the plates were centrifuged at 1,500 rpm and 4° C. for 3 minutes. For primary staining, cells were resuspended in 100 μl per well of either FACS buffer alone (controls), mouse monoclonal anti-T7 IgG (Merck Millipore, USA) at 3 μg/ml FACS buffer or the humanized antibodies 16-B-03, 16-B-05, 16-B-07, 23-B-04, 42-B-02 and 42-B-04 of the invention also at 3 μg/ml FACS buffer and incubated on ice for 1 hour. Afterwards, plates were centrifuged at 1,500 rpm and 4° C. for 3 minutes and washed twice with 200 μl per well of FACS buffer. For secondary staining of previous anti T7 staining, cells were spun down and resuspended in 100 μl per well of PE-conjugated goat anti-mouse IgG F(ab′)2 detection fragment (Dianova, Germany) diluted 1:100 in FACS buffer. For secondary staining of previous staining with humanized antibodies of invention, cells were spun down and resuspended in 100 μl per well of PE-conjugated goat anti-human IgG F(ab′)2 detection fragment (Dianova, Germany) diluted 1:100 in FACS buffer. Protected from light, the cell suspensions were incubated on ice for 1 hour. Plates were then centrifuged at 1,500 rpm and 4° C. for 3 minutes and washed three times with 200 μl per well of FACS buffer. Finally, cells were resuspended in 150 μl per well of FACS buffer and analyzed using a BD Accuri™ C6 Plus flow cytometer (Becton Dickinson, Germany).

B1: humanized antibody 42-B-04 (antibody, V domains shown)
VH: QVTLRESGPALVKPTQTLTLTCTFSGFSLSTFGRGVGWIRQPPGKALEWLAHIWWDDEKYYNSALKSRLTISKDTSKNQVVLTITNMDPVDTATYYCARIQNYGSNYWYFDVWGQGTLVTVSS
VL: AIQLTQSPSSLSASVGDRVTITCRASSRISYMFWYQQKPGKAPKVLIYDTSNLASGVPSRFSGSGSGTDYTLTISSLQPEDFATYYCQQWNAYPLTFGQGTKLEIK
notes: Tested as whole humanized antibody produced in CHO cells and detected with anti-human IgG; the general methods speak of human IgG1/Kappa; also called clone 42-B-04
- binding result: no binding (tested: 3 µg/ml)

B2: humanized antibody 42-B-02 (antibody, V domains shown)
VH: B1 VH
VL: B1 VL with A92S
notes: Tested as whole humanized antibody from transient expression of heavy chain/kappa light chain pairs in CHO cells, detected with anti-human IgG; the general methods speak of human IgG1/Kappa; also called clone 42-B-02
- binding result: no binding (tested: 3 µg/ml)

B3: humanized antibody 23-B-04 (antibody, V domains shown)
VH: B1 VH with R34M, Q101S, D111N
VL: B1 VL with R28S, I29V, F33Y
notes: Tested as whole humanized antibody produced in CHO cells and detected with anti-human IgG; the general methods speak of human IgG1/Kappa; also called clone 23-B-04
- binding result: no binding (tested: 3 µg/ml)

B4: humanized antibody 16-B-07 (antibody, V domains shown)
VH: QVTLRESGPALVKPTQTLTLTCTFSGFSLSTFALGVGWIRQPPGKALEWLAHIWWDEDKYYNPALKSRLTISKDTSKNQVVLTITNMDPVDTATYYCARITTYYYGMDYWGQGTLVTVSS
VL: EIVMTQSPDFQSVTPKEKVTITCRASQSIGNHLHWYQQKPDASPKLLIKYASQSISGVPSRFSGSGSGTDFTLTINSLEAEDAATYFCQQSYQWPLTFGQGTKLEIK
notes: Tested as whole humanized antibody produced in CHO cells and detected with anti-human IgG; the general methods speak of human IgG1/Kappa; also called clone 16-B-07
- binding result: no binding (tested: 3 µg/ml)

B5: humanized antibody 16-B-05 (antibody, V domains shown)
VH: B4 VH
VL: B4 VL with Q93N
notes: Tested as whole humanized antibody produced in CHO cells and detected with anti-human IgG; the general methods speak of human IgG1/Kappa; The printed LCVD reads SRESGSG where the printed cDNA encodes SRFSGSG; also called clone 16-B-05
- binding result: no binding (tested: 3 µg/ml)

B6: humanized antibody 16-B-03 (antibody, V domains shown)
VH: B4 VH with E57D
VL: B4 VL
notes: Tested as whole humanized antibody produced in CHO cells and detected with anti-human IgG; the general methods speak of human IgG1/Kappa; also called clone 16-B-03
- binding result: no binding (tested: 3 µg/ml)
